Results: IntAct's records for PubMed 20062059

B1: Exocyst complex component SEC3 (Saccharomyces cerevisiae), P33332 (parent)
chain: MRSSKSPFKRKSHSRETSHDENTSFFHKRTISGSSAHHSRNVSQGAVPSSAPPVSGGNYSHKRNVSRASNSSQTSNFLAEQYERDRKAIINCCFSRPDHKTGEPPNNYITHVRIIEDSKFPSSRPPPDSKLENKKKRLLILSAKPNNAKLIQIHKARENSDGSFQIGRTWQLTELVRVEKDLEISEGFILTMSKKYYWETNSAKERTVFIKSLITLYIQTFEGHVPELVNWDLSLFYLDERSYQRAVITNRPGSVSPIKSPTSNFTTNTTQSVGSVPFSAPTERTRRSETESVNPVSTPASVEYHAGMKSLNKAPYSSNSTLNEVNKRYELEQQQQQEEAELRRLEEQKRLQLQKENEMKRLEEERRIKQEERKRQMELEHQRQLEEEERKRQMELEAKKQMELKRQRQFEEEQRLKKERELLEIQRKQREQETAERLKKEEQEALAKKEEEEKSKRNKVDNESYTQEINGKVDNLLEDLNAVLAEETETTPTMQNGTYVPERSTARAHDQLKKPLNIAKVESLGGSDLNDSISLSDEIAGLNTSNLSGEDQDEKNDLSFEKGDEVRYSNNFEGEAPHVYHEVSIIQEEAPAVSQKLILPEENNESEALIESKEEIKTMENIDDEVLLEILTDINWSIEDDADSMIERIDLRLAETEYLFNQNLLSLQKIGPNIRPYEDKVNDECHRIIPTLSLFLMEMSNFSNDIENVESQDNGLQVESANKKLLWNTLDELLKTVSLDEISLNQLLECPIREKNLPWMENQLNLLLKAFQAIGSDGNEVEYNLREISGLKQRLQFYEKVTKIFLNRIVEEMQKKFSNIRGQDISHDQMIRILTTLLIFSPLILFCKEISQKSYQAIVENWNVSIQPVYMELWTKKISQLQGIDTNDEKMNELSLSQLLNEWDTFRKERKTNDINPVFKNSFSLLTECLQTMRQECIVYQNFVEVFFHISSKHNFEEYIKHFNDPDAPPILLDTVKVMQSDREAAVIETQLVSRIFQPIVTRLSSYFVELVKAEPTVAPALTFYLENEIKSLESSNHEFLLSAVTRMYTQIKQVWSDNVEEQVLHFERISNATTNGEILPGILDLPVGLKNSEDLFQFAKRSMDIKDTDEGYESIELMNSSFRKLSIAATRSITHKEVNSSINPNLSDTAALNNDYMETISLLVNSNWLTEMLSMLNFNKDGIFDTSLQNVKKVFDVEKESYASFLLRDTMPKLTAFVYGVSNIIENTNNVNMTNPSRWAAYSRQNLENILLAYTSHEIETLVKRLHTHMVNDFGYHQENAINNVLCDKLWSCIQGQTVSLYLKLYTVIDKHYRGTNIRFTKNDIISAFEEYKNA

Variants of: B1
Settings: with rho1_yeast RHO1, P06780
Sequence of rho1_yeast RHO1, P06780 (P06780 whole entry): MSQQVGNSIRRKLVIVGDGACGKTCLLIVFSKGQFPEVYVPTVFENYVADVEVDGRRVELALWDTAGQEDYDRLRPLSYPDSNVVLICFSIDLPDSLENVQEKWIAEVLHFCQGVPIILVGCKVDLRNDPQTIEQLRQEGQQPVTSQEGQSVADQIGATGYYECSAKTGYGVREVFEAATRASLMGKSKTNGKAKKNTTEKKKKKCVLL

| Variant | effect of a mutation on the interaction |
| --- | --- |
| E199A | disrupting interaction |
| L131A | disrupting interaction |
| K136A | disrupting interaction |
